{"source": "paper PMC2696053", "origin": "cited, not measured here", "key": {"[1]": {"molecular_target": "Delta-like 1 (Homo sapiens) (UniProt O00548)", "sequence (O00548 18-545, stated change not applied)": "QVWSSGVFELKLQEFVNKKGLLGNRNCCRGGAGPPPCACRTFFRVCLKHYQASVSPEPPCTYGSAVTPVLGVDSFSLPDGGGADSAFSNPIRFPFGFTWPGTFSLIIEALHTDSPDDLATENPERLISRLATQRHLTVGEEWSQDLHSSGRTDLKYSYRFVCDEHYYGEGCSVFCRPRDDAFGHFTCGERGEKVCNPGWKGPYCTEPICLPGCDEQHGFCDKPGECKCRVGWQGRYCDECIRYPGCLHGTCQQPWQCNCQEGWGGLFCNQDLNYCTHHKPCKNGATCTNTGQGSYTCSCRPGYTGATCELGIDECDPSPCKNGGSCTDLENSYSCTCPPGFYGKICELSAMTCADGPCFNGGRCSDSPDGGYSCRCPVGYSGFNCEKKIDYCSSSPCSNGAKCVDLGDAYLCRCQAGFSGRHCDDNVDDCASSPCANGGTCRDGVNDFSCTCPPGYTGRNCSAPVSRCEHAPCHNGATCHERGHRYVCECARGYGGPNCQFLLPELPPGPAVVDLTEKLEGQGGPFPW", "test": "surface plasmon resonance"}, "[2]": {"molecular_target": "Delta ECD (Drosophila melanogaster) (UniProt P10041)", "sequence (P10041 19-596, stated change not applied)": "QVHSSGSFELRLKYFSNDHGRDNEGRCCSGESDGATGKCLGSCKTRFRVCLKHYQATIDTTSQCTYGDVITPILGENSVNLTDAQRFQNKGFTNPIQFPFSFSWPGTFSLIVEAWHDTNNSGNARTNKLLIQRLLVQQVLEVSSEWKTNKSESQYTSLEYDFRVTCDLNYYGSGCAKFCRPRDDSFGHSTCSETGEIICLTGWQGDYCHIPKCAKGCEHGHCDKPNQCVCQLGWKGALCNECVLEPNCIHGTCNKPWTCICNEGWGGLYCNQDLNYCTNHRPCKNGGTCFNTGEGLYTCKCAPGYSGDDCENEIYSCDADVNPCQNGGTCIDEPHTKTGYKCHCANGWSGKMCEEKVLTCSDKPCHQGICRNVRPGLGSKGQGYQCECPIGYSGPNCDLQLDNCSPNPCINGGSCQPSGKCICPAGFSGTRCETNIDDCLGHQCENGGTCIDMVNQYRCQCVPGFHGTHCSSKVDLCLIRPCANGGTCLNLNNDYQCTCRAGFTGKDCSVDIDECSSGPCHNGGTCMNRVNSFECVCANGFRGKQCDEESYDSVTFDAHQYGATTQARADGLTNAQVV", "test": "ELISA"}}, "data": [{"substance": "Notch1 EGF-like repeats 11-14 (from UniProt P46531)", "values": [{"measurement": "Kd", "setting": "[1]", "value": 130, "unit": "µM"}]}, {"substance": "Notch EGF-like repeats 11-20 (from UniProt P07207)", "values": [{"measurement": "Kd", "setting": "[2]", "value": 0.00187, "unit": "µM"}]}]}
